Source: PMC9734150, “Allosteric rescue of catalytically impaired ATP phosphoribosyltransferase variants links protein dynamics to active-site electrostatic preorganisation” (Nature Communications, 2022)
Substitutions are numbered along the chain they refer to. Names may count otherwise.

T1: WT-PaHisGS (Psychrobacter arcticus ATP phosphoribosyltransferase catalytic subunit HisGS) (Psychrobacter arcticus, UniProt Q4FQF7 1-231)
T1 chain: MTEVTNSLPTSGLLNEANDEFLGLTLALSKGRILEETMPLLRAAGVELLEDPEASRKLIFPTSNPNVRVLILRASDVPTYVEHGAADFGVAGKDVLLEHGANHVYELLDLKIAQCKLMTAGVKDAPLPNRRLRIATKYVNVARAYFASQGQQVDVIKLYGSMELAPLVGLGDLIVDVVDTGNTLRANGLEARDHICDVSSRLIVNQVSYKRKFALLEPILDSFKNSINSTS

T2: R32A-PaHisGS (Psychrobacter arcticus, UniProt Q4FQF7 1-231, R32A)
T2 sequence: T1 chain with R32A

T3: R56A-PaHisGS (Psychrobacter arcticus, UniProt Q4FQF7 1-231, R56A)
T3 sequence: T1 chain with R56A

T4: R56K-PaHisGS (Psychrobacter arcticus, UniProt Q4FQF7 1-231, R56K)
T4 sequence: T1 chain with R56K

B1: R56A-PaHisGS (enzyme, Psychrobacter arcticus)
chain: T1 chain with R56A
notes: HisGS, Psychrobacter arcticus, with R56A; made from the WT-PaHisGS expression vector
B2: PaHisZ (Psychrobacter arcticus ATP phosphoribosyltransferase regulatory protein HisZ) (natural protein)
chain: MLPDGVADVLFEDAHKQEVLRHQLTQQLITHGYQLVSPPMIEFTESLLSGASEDLKRQTFKIIDQLTGRLMGIRADITPQILRIDAHHGGDGIARYCYAGDVIHTLPSGLFGSRTPLQLGAEIFGCESIAADIELIDVLFSMINSLDMSAVLHVDLGHVTIFKRLAELAALSASDTEQLMQLYANKNLPELKQVCQVLPMGSDFYTLARFGHDIANLLGRLSENAQQDTKIVTAIDELQRLKAHLQVQWQCAVSIDVTELSGYHYHTGIVFNGYINSETQPLVRGGRFDGMKSNQLATNQPRQATGFSMDVSRLLAHTQLDAPFIVLIDYDAFNNLDSAQRQLLLQQVASLRQQGYRVTMPLTAEDMPVGLTHRLSLADNQWRLHAV
notes: HisZ, regulatory subunit of short-form ATP phosphoribosyltransferase, Psychrobacter arcticus; also called WT-PaHisZ
B3: WT-PaHisGS (Psychrobacter arcticus ATP phosphoribosyltransferase catalytic subunit HisGS) (enzyme)
chain: T1 chain
notes: HisGS, catalytic subunit of short-form ATP phosphoribosyltransferase, Psychrobacter arcticus
B4: C115S-PaHisGS (enzyme, Psychrobacter arcticus)
chain: T1 chain with C115S
notes: HisGS, Psychrobacter arcticus, with C115S; made from the WT-PaHisGS expression vector
B5: R32A-PaHisGS (enzyme, Psychrobacter arcticus)
chain: T1 chain with R32A
notes: HisGS, Psychrobacter arcticus, with R32A; made from the WT-PaHisGS expression vector
B6: R56A/K57A-PaHisGS (enzyme, Psychrobacter arcticus)
chain: T1 chain with R56A, K57A
notes: HisGS, Psychrobacter arcticus, with R56A and K57A; made from the WT-PaHisGS expression vector

Tests used:
[1] = target: WT-PaHisGS (Psychrobacter arcticus ATP phosphoribosyltransferase catalytic subunit HisGS) (Psychrobacter arcticus) (UniProt Q4FQF7); assay: enzyme activity titration (initial rate against HisZ concentration); apparent KD; fixed PaHisGS variant, HisZ (PaHisZ, His-tagged PaHisZ or AbHisZ) varied; initial velocities at 20 °C in 100 mM tricine, 100 mM KCl, 15 mM MgCl2, 4 mM DTT, pH 8.5, 5.6 mM ATP, 2 mM PRPP; fit to Eq. (3), or to Eq. (5) for R56A-PaHisGS with AbHisZ
[2] = target: R56A-PaHisGS (Psychrobacter arcticus) (UniProt Q4FQF7)
[3] = target: WT-PaHisGS (Psychrobacter arcticus ATP phosphoribosyltransferase catalytic subunit HisGS) (Psychrobacter arcticus) (UniProt Q4FQF7)
[4] = target: B2; assay: enzyme activity titration (initial rate against HisZ concentration); apparent KD; fixed PaHisGS variant, HisZ (PaHisZ, His-tagged PaHisZ or AbHisZ) varied; initial velocities at 20 °C in 100 mM tricine, 100 mM KCl, 15 mM MgCl2, 4 mM DTT, pH 8.5, 5.6 mM ATP, 2 mM PRPP; fit to Eq. (3), or to Eq. (5) for R56A-PaHisGS with AbHisZ; conditions: both partners purified
[5] = target: the molecule itself; assay: SEC; Superdex 200 10/300 GL, 4 °C, 20 mM HEPES pH 8.0; 1 mg/mL protein pre-incubated with 2 mM DTT
[6] = target: AbHisZ (Acinetobacter baumannii HisZ); assay: enzyme activity titration (initial rate against HisZ concentration); apparent KD; fixed PaHisGS variant, HisZ (PaHisZ, His-tagged PaHisZ or AbHisZ) varied; initial velocities at 20 °C in 100 mM tricine, 100 mM KCl, 15 mM MgCl2, 4 mM DTT, pH 8.5, 5.6 mM ATP, 2 mM PRPP; fit to Eq. (3), or to …; conditions: other: enzyme activity titration (initial rate against HisZ concentration)
[7] = target: the molecule itself; assay: crystal structure; R56A-PaATPPRT (R56A-PaHisGS with PaHisZ) crystals soaked in PRPP and ATP; molecular replacement with PDB 6FU2
[8] = target: T1, WT-PaHisGS (Psychrobacter arcticus ATP …)
R32A-PaHisGS [9] = target: T2, R32A-PaHisGS
R56A-PaHisGS [10] = target: T3, R56A-PaHisGS
R56A/K57A-PaHisGS = target: B6; assay: cell-based or functional assay
[11] = target: B3; assay: cell-based or functional assay
R56A-PaHisGS [12] = target: B1; assay: cell-based or functional assay
C115S-PaHisGS = target: B4; assay: cell-based or functional assay
R32A-PaHisGS [13] = target: B5; assay: cell-based or functional assay
R56K-PaHisGS = target: T4, R56K-PaHisGS; assay: cell-based or functional assay

Molecule: AbHisZ (Acinetobacter baumannii HisZ) (natural protein)
- Kd [1]: 9000 nM
- apparent kcat of the R56A-PaHisGS/AbHisZ hybrid complex [2]: 0.22 s⁻¹
- apparent kcat of the WT-PaHisGS/AbHisZ hybrid complex [3]: 1.49 s⁻¹

Molecule: B1
- Kd [4]: 4000 nM
- stoichiometry N [5]: 2
- K0.5 (concentration of AbHisZ at the inflection point, Eq. 5) [6]: 8.1 ± 0.4 µM

Molecule: B2
- binding result [7]: binds
- Kd [8]: 60 nM
- Kd (R32A-PaHisGS [9]): 30 nM
- Kd (R56A-PaHisGS [10]): 200 nM
- Activation by PaHisZ: ratio of kcat of PaATPPRT variant to v/ET of the PaHisGS mutant alone (R56A/K57A-PaHisGS): 521 fold
- Activation by PaHisZ: ratio of kcat of PaATPPRT to v/ET of PaHisGS alone [11]: 29 fold
- Activation by PaHisZ: ratio of kcat of PaATPPRT variant to v/ET of the PaHisGS mutant alone (R56A-PaHisGS [12]): 250 fold
- Activation by PaHisZ: ratio of kcat of PaATPPRT variant to v/ET of the PaHisGS mutant alone (C115S-PaHisGS): 1860 fold
- Activation by PaHisZ: ratio of kcat of PaATPPRT variant to v/ET of the PaHisGS mutant alone (R32A-PaHisGS [13]): 208 fold
- activation of the R56K-PaHisGS (6 µM) reaction rate by PaHisZ (20 µM) (R56K-PaHisGS): ~11 fold

Molecule: B3
- Kd [4]: 440 nM
- stoichiometry N [5]: 2

Molecule: B4
- Kd [4]: 1700 nM
- stoichiometry N [5]: 2

Molecule: B5
- Kd [4]: 490 nM
- stoichiometry N [5]: 2

Molecule: B6
- Kd [4]: 5000 nM
- stoichiometry N [5]: 2
